Biological target: T1, in vitro translated GGA3 wild type (from HA-GGA3 pcDNA4 plasmid), Q9NZ52
T1 chain: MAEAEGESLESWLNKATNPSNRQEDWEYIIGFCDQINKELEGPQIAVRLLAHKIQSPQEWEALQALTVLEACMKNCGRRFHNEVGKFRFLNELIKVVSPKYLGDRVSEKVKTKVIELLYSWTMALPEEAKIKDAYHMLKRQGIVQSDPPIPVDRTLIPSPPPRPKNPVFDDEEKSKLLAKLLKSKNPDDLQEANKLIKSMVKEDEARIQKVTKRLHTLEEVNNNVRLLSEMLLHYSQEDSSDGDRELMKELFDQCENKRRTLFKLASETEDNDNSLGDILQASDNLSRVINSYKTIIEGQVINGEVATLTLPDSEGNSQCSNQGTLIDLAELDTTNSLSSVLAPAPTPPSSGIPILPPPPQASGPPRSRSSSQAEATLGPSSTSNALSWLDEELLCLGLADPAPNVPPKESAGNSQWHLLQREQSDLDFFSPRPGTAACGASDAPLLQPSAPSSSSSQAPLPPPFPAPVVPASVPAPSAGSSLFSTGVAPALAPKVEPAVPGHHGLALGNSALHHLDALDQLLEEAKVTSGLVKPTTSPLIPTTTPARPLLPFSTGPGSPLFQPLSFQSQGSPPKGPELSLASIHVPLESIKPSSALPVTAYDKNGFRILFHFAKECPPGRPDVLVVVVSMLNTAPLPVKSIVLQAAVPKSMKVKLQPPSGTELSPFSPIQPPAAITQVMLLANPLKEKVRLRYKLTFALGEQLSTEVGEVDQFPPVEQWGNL

B1: recombinant caspase 3 (Pharmingen) (protein)
chain: SGISLDNSYKMDYPEMGLCIIINNKNFHKSTGMTSRSGTDVDAANLRETFRNLKYEVRNKNDLTREEIVELMRDVSKEDHSKRSSFVCVLLSHGEEGIIFGTNGPVDLKKITNFFRGDRCRSLTGKPKLFIIQACRGTELDCGIETDSGVDDDMACHKIPVEADFLYAYSTAPGYYSWRNSKDGSWFIQSLCAMLKQYADKLEFMHILTRVNRKVATEFESFSFDATFHAKKQIPCIVSMLTKELYFYH
cleavage of in vitro translated GGA3 (cold methionine), Western blot with anti-GGA3 antibody: recombinant caspase 3 cleaves in vitro translated GGA3 (cold methionine) in three fragments | cleavage of in vitro translated [35S]-methionine-labeled GGA3 (SDS-PAGE, phosphorimager): Recombinant caspase 3 cleaved in vitro translated GGA3 in several fragments

Source: US20080118499
